{"source": "patent US20170298146A1", "about": "(MODIQUEST B V, published 2017)", "binders": {"B1": {"name": "RhmAb2.102 (antibody, human IgG1, lambda)", "heavy": "not shown", "light": "QSVLTQPPSMSAAPGQKVTISCSGSSSNIGNNYVSWYQQVPGTAPKLLIYDDNKRPSGIPGRFSGSKSATSATLGITGLQAGDEADYYCGSWDDNLSVVLFGGGTKLTVLGQPKAAPSVTLFPPSSEELQANKATLVCLISDFYPGAVTVAWKADSSPVKAGVETTTPSKQSNNKYAASSYLSLTPEQWKSHRSYSCQVTHEGSTVEKTVAPTECS", "notes": "Human IgG1 lambda; also called Rhm2.102"}}, "key": {"[1]": {"molecular_target": "T1, Histone 2A citrulline-containing peptide 2 (human, also: biotin label)", "T1 peptide": "AKAKS[Cit]SSRAGL", "test": "peptide ELISA, 0.016 ug/well", "experimental": "(§1) Biotin and citrulline-containing peptides derived from histone 2A were immobilized on NEUTRAVIDIN®-coated 96-well ELISA plates (0.3 μg/well). CFC-1 and CFC-0 were coated at the same concentration and served as positive and negative controls respectively for specific anti-citrulline reactivity and as coating controls. Non-coated wells were used to test for aspecific binding of the antibodies. […] Detection of bound anti-citrulline antibodies was performed by incubating the wells with rabbit-anti-human-HRP (1:2000) for one hour at RT followed by incubation with TMB substrate. The resulting OD (y-axis) is a measure for antibody binding.\n(§2) Ninety-six-well ELISA plates were coated with NEUTRAVIDIN® (0.1 μg/well) by overnight incubation at 4° C. Wells were washed five times with PBS-TWEEN®-20 (PBS-T) and blocked by a one-hour incubation with PBS-T+1% Bovine serum albumin (BSA) at room temperature (RT). After five more washes with PBS-T, wells were incubated for one hour at RT with histone-derived citrulline and biotin-containing peptides (0.3 μg/well). […] Wells were washed five times with PBS-T and incubated with rabbit-anti-human-HRP (1:2000) for one hour at RT followed by five washes with PBS-T and three wash steps with PBS. Wells were incubated for five minutes with TMB substrate before stopping the reaction with 2 M H₂SO₄. Optical density was measured by 450 nm and is a measure for the affinity of the antibodies used."}, "[2]": {"molecular_target": "T2, Histone 2A citrulline-containing peptide 9 (human, also: biotin label)", "T2 peptide": "DNKKT[Cit]IIPRHL", "test": "peptide ELISA, 0.016 ug/well", "experimental": "as §1, §2"}, "[3]": {"molecular_target": "T3, Histone 2A citrulline-containing peptide 5 (human, also: biotin label)", "T3 peptide": "VGRVH[Cit]LLRKGN", "test": "peptide ELISA, 0.016 ug/well", "experimental": "as §1, §2"}, "[4]": {"molecular_target": "T4, Histone 2A citrulline-containing peptide 8 (human, also: biotin label)", "T4 peptide": "AGNAA[Cit]DNKKTR", "test": "peptide ELISA, 0.016 ug/well", "experimental": "as §1, §2"}, "[5]": {"molecular_target": "T5, Histone 2A citrulline-containing peptide 1 (human, also: biotin label)", "T5 construct": "also called AAASGXGKQGGK", "T5 peptide": "AAASG[Cit]GKQGGK", "test": "peptide ELISA, 0.016 ug/well", "experimental": "as §1, §2"}, "[6]": {"molecular_target": "T6, Histone 2A citrulline-containing peptide 3 (human, also: biotin label)", "T6 peptide": "KSRSS[Cit]AGLQFP", "test": "peptide ELISA, 10 ug/well", "experimental": "as §1, §2"}, "[7]": {"molecular_target": "T1, Histone 2A citrulline-containing …", "test": "peptide ELISA, 10 ug/well", "experimental": "as §1, §2"}, "[8]": {"molecular_target": "T2, Histone 2A citrulline-containing …", "test": "peptide ELISA, 10 ug/well", "experimental": "as §1, §2"}, "[9]": {"molecular_target": "T3, Histone 2A citrulline-containing …", "test": "peptide ELISA, 10 ug/well", "experimental": "as §1, §2"}, "[10]": {"molecular_target": "T7, Histone 2A citrulline-containing peptide 12 (human, also: biotin label)", "T7 peptide": "NKLLG[Cit]VTIAQG", "test": "peptide ELISA, 10 ug/well", "experimental": "as §1, §2"}, "[11]": {"molecular_target": "T8, Histone 2A citrulline-containing peptide 4 (human, also: biotin label)", "T8 peptide": "QFPVG[Cit]VHRLLR", "test": "peptide ELISA, 10 ug/well", "experimental": "as §1, §2"}, "[12]": {"molecular_target": "T4, Histone 2A citrulline-containing …", "test": "peptide ELISA, 10 ug/well", "experimental": "as §1, §2"}, "[13]": {"molecular_target": "T9, Histone 2A citrulline-containing peptide 10 (human, also: biotin label)", "T9 peptide": "TRIIP[Cit]HLQLAI", "test": "peptide ELISA, 10 ug/well", "experimental": "as §1, §2"}, "[14]": {"molecular_target": "T5, Histone 2A citrulline-containing …", "test": "peptide ELISA, 10 ug/well", "experimental": "as §1, §2"}, "[15]": {"molecular_target": "T10, Histone 2A citrulline-containing peptide 7 (human, also: biotin label)", "T10 peptide": "GNYSE[Cit]VGAGAP", "test": "peptide ELISA, 10 ug/well", "experimental": "as §1, §2"}, "[16]": {"molecular_target": "T11, Histone 2A citrulline-containing peptide 6 (human, also: biotin label)", "T11 peptide": "VHRLL[Cit]KGNYSE", "test": "peptide ELISA, 10 ug/well", "experimental": "as §1, §2"}, "CFC-1 [17]": {"molecular_target": "T12, CFC-1", "T12 construct": "Positive control for anti-citrulline reactivity; also called cfc1 XG", "test": "peptide ELISA, 10 ug/well", "experimental": "as §1, §2"}, "[18]": {"molecular_target": "T13, Histone 2A citrulline-containing peptide 11 (human, also: biotin label)", "T13 peptide": "LQLAI[Cit]NDEELN", "test": "peptide ELISA, 10 ug/well", "experimental": "as §1, §2"}, "[19]": {"molecular_target": "T2, Histone 2A citrulline-containing …", "test": "peptide ELISA, 0.08 ug/well", "experimental": "as §1, §2"}, "msFibα XG": {"molecular_target": "T14, msFibα XG (mouse, X at position 8 is citrulline; biotin label)", "T14 peptide": "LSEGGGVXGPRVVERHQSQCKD", "test": "peptide ELISA, 10 ug/well", "experimental": "as §1, with “fibrinogen and vimentin” for “histone 2A”\n(§3) Biotin-labeled and citrulline-containing fibrinogen and vimentin peptides (Table 5) were also tested for reactivity with the therapeutic antibodies. Peptides were coated on 96-well NEUTRAVIDIN®-ELISA plates."}, "huFibα XH": {"molecular_target": "T15, huFibα XH (human, X at position 15 is citrulline; biotin label)", "T15 peptide": "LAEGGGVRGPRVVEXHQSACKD", "test": "peptide ELISA, 10 ug/well", "experimental": "as §1, with “fibrinogen and vimentin” for “histone 2A”\nas §3"}, "msFibβ XG": {"molecular_target": "T16, msFibβ XG (mouse, also: biotin label)", "T16 peptide": "EPTDSLDA[Cit]GHRPVDRR", "test": "peptide ELISA, 10 ug/well", "experimental": "as §1, with “fibrinogen and vimentin” for “histone 2A”\nas §3"}, "CFC-1 [20]": {"molecular_target": "T12, CFC-1", "test": "peptide ELISA, 10 ug/well", "experimental": "as §1, with “fibrinogen and vimentin” for “histone 2A”\nas §3", "remark": "listed apart in the source"}, "huFibα XG": {"molecular_target": "T17, huFibα XG (human, X at position 8 is citrulline; biotin label)", "T17 peptide": "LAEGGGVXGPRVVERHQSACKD", "test": "peptide ELISA, 10 ug/well", "experimental": "as §1, with “fibrinogen and vimentin” for “histone 2A”\nas §3"}, "msVim XS/XL": {"molecular_target": "T18, msVim XS/XL (mouse, also: biotin label)", "T18 construct": "also called mouse vimentin peptide", "T18 peptide": "YVT[Cit]SSAV[Cit]L[Cit]SSVP", "test": "peptide ELISA, 10 ug/well", "experimental": "as §1, with “fibrinogen and vimentin” for “histone 2A”\nas §3"}, "msFibα XH": {"molecular_target": "T19, msFibα XH (mouse, X at position 15 is citrulline; biotin label)", "T19 peptide": "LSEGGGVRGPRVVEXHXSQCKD", "test": "peptide ELISA, 10 ug/well", "experimental": "as §1, with “fibrinogen and vimentin” for “histone 2A”\nas §3"}}, "note": "Like-named read-outs stand apart in the source and are kept apart here. Non-standard residues stand in square brackets, D forms with d. No end group written: not given here. Cit = NC(=O)NCCC[C@H](N)C(=O)O", "data": [{"binder": "B1", "values": [{"measurement": "OD", "setting": "[1]", "result": 0.065, "unit": "OD"}, {"measurement": "OD", "setting": "[2]", "result": 0.064, "unit": "OD"}, {"measurement": "OD", "setting": "[3]", "result": 0.065, "unit": "OD"}, {"measurement": "OD", "setting": "[4]", "result": 0.063, "unit": "OD"}, {"measurement": "OD", "setting": "[5]", "result": 0.843, "unit": "OD"}, {"measurement": "OD", "setting": "[6]", "result": 0.619, "unit": "OD"}, {"measurement": "OD", "setting": "[7]", "result": 0.552, "unit": "OD"}, {"measurement": "OD", "setting": "[8]", "result": 0.09, "unit": "OD"}, {"measurement": "OD", "setting": "[9]", "result": 0.239, "unit": "OD"}, {"measurement": "OD", "setting": "[10]", "result": 0.083, "unit": "OD"}, {"measurement": "OD", "setting": "[11]", "result": 2.06, "unit": "OD"}, {"measurement": "OD", "setting": "[12]", "result": 0.082, "unit": "OD"}, {"measurement": "OD", "setting": "[13]", "result": 0.091, "unit": "OD"}, {"measurement": "OD", "setting": "[14]", "result": 3.11, "unit": "OD"}, {"measurement": "OD", "setting": "[15]", "result": 0.08, "unit": "OD"}, {"measurement": "OD", "setting": "[16]", "result": 1.41, "unit": "OD"}, {"measurement": "OD", "setting": "CFC-1 [17]", "result": 3.27, "unit": "OD"}, {"measurement": "OD", "setting": "[18]", "result": 0.088, "unit": "OD"}, {"measurement": "OD", "setting": "[19]", "result": 0.06, "unit": "OD"}, {"measurement": "OD", "setting": "msFibα XG", "result": 3.03, "unit": "OD"}, {"measurement": "OD", "setting": "huFibα XH", "result": 0.179, "unit": "OD"}, {"measurement": "OD", "setting": "msFibβ XG", "result": 3.8, "unit": "OD"}, {"measurement": "OD", "setting": "CFC-1 [20]", "result": 3.89, "unit": "OD"}, {"measurement": "OD", "setting": "huFibα XG", "result": 2.73, "unit": "OD"}, {"measurement": "OD", "setting": "msVim XS/XL", "result": 3.69, "unit": "OD"}, {"measurement": "OD", "setting": "msFibα XH", "result": 0.154, "unit": "OD"}]}]}
